Source: patent publication US20200262895A1 (Biogen, published 2020)
Like-named read-outs stand apart in the source and are kept apart here.

B1: ch17C1(N31Q) mIgG2a (antibody)
heavy: EVQLVQSGAEVKKPGESLKISCKAFGYSFTNFWIGWVRQVPGKGLEWVGIIYPGDSDTRYSPSFQGQVTISADKSIDTAYLQWGHLKASDSAMYFCARRGFWTGSQIEYWGQGTQVTVSSAKTTAPSVYPLAPVCGDTTGSSVTLGCLVKGYFPEPVTLTWNSGSLSSGVHTFPAVLQSDLYTLSSSVTVTSSTWPSQSITCNVAHPASSTKVDKKIEPRGPTIKPCPPCKCPAPNLLGGPSVFIFPPKIKDVLMISLSPIVTCVVVDVSEDDPDVQISWFVNNVEVHTAQTQTHREDYNSTLRVVSALPIQHQDWMSGKEFKCKVNNKDLPAPIERTISKPKGSVRAPQVYVLPPPEEEMTKKQVTLTCMVTDFMPEDIYVEWTNNGKTELNYKNTEPVLDSDGSYFMYSKLRVEKKNWVERNSYSCSVVHEGLHNHHTTKSFSRTPGK
light: QSALTQPPSASGSPGHSVTISCTGTSSDVGQYSFVSWYQQYPGKAPKIIIYDVSKRSSGVPDRFFGSKSANTASLTVSGVQEEDEADYFCSSYGGSKYPWVFGGGTKLTVLGQPKSSPSVTLFPPSSEELETNKATLVCTITDFYPGVVTVDWKVDGTPVTQGMETTQPSKQSNNKYMASSYLTLTARAWERHSSYSCQVTHEGHTVEKSLSRADCS
B2: ch17C1(N31Q, I48V) mIgG2a (antibody, V domains shown)
VH: EVQLVQSGAEVKKPGESLKISCKAFGYSFTNFWIGWVRQVPGKGLEWVGIIYPGDSDTRYSPSFQGQVTISADKSIDTAYLQWGHLKASDSAMYFCARRGFWTGSQIEYWGQGTQVTVSS
VL: QSALTQPPSASGSPGHSVTISCTGTSSDVGQYSFVSWYQQYPGKAPKVIIYDVSKRSSGVPDRFFGSKSANTASLTVSGVQEEDEADYFCSSYGGSKYPWVFGGGTKLTVLG
notes: The sentence giving the chains names the antibody 'ch17C1(N31Q) mIgG2a' but lists the (N31Q, I48V) light chain
B3: chimeric NI-105.17C1 (ch17C1), mouse IgG2a/lambda (antibody, V domains shown)
VH: EVQLVQSGAEVKKPGESLKISCKAFGYSFTNFWIGWVRQVPGKGLEWVGIIYPGDSDTRYSPSFQGQVTISADKSIDTAYLQWGHLKASDSAMYFCARRGFWTGSQIEYWGQGTQVTVSS
VL: QSALTQPPSASGSPGHSVTISCTGTSSDVGNYSFVSWYQQYPGKAPKIIIYDVSKRSSGVPDRFFGSKSANTASLTVSGVQEEDEADYFCSSYGGSKYPWVFGGGTKLTVLG
modifications: N-glycan on Asn-31 (CDR1), fully occupied on CHO expression
notes: also called ch17C1-mIgG2a
B4: ch17C1(N31Q) mIgG1 Agly (antibody)
heavy: EVQLVQSGAEVKKPGESLKISCKAFGYSFTNFWIGWVRQVPGKGLEWVGIIYPGDSDTRYSPSFQGQVTISADKSIDTAYLQWGHLKASDSAMYFCARRGFWTGSQIEYWGQGTQVTVSSAKTTPPSVYPLAPGSAAQTNSMVTLGCLVKGYFPEPVTVTWNSGSLSSGVHTFPAVLQSDLYTLSSSVTVPSSTWPSETVTCNVAHPASSTKVDKKIVPRDCGCKPCICTVPEVSSVFIFPPKPKDVLTITLTPKVTCVVVDISKDDPEVQFSWFVDDVEVHTAQTQPREEQFQSTFRSVSELPIMHQDWLNGKEFKCRVNSAAFPAPIEKTISKTKGRPKAPQVYTIPPPKEQMAKDKVSLTCMITDFFPEDITVEWQWNGQPAENYKNTQPIMDTDGSYFVYSKLNVQKSNWEAGNTFTCSVLHEGLHNHHTEKSLSHSPGK
light: QSALTQPPSASGSPGHSVTISCTGTSSDVGQYSFVSWYQQYPGKAPKIIIYDVSKRSSGVPDRFFGSKSANTASLTVSGVQEEDEADYFCSSYGGSKYPWVFGGGTKLTVLGQPKSSPSVTLFPPSSEELETNKATLVCTITDFYPGVVTVDWKVDGTPVTQGMETTQPSKQSNNKYMASSYLTLTARAWERHSSYSCQVTHEGHTVEKSLSRADCS
notes: Aglycosylated Fc; also called ch17C1-mIgG1-Agly; ch17C1 Agly
B5: recombinant human antibody NI-105.40E8 (NI-105.40E8-hIgG1, germlined) (antibody, V domains shown)
VH: EVQLVESGGGLVQPGGSLRLSCAASGFTFPNYVMTWVRQAPGKGLEWVSGISGSGGSTDYADSVKGRFTISRDNSKNTLYLQMNSLRVEDTALYYCAKGSGGIRGQGTMVTVSS
VL: QSALTQPRSVSGSPGQSVTISCTGTSSDVGGYNYVSWHQQHPGKAPKLLIYDVTKRPSGVPDRFSGSKSGNTAALTISGLQAEDEADYYCHSYVGSYTLVFGGGTKLTVLG
notes: Heavy chain is human IgG1
B6: recombinant human antibody NI-105.48E5 (germlined) (antibody, V domains shown)
VH: EVQLVESGGGLVQPGGSLKLSCAASGFTFSGSAMHWVRQASGKGLEWVGRIRSKANSYATAYAASVKGRFTISRDDSKNTAYLQMNSLKTEDTAVYYCTSPTVTTEVWGQGTLVTVSS
VL: not shown
notes: Complete recombinant human IgG1 by the methods
B7: recombinant human antibody NI-105.4E4 (antibody, V domains shown)
VH: EVQLVESGGGLVQPGGSLKLSCAASGFNFNISAIHWVRQASGKGLEWVGRIRSKSHNYATLYAASLKGRFTLSRDDSRNTAYLQMSSLQTEDMAVYYCTVLSANYDTFDYWGQGTLVTVSS
VL: LPVLTQPPSVSVSPGQTARISCFGDTLPKQYTYWYQQKPGQAPVLVIYKDTERPSGIPERFSGSSSGTTVTLTISGVQAEDEADYYCLSADNSATWVFGGGTKVTVL
modifications: Asn-30 of the VH carried an N-glycan when the chimeric ch4E4 was expressed in CHO cells; the letter is unchanged.
notes: Human antibody described in US 2012/0087861
B8: recombinant human antibody NI-105.17C1 (not germlined, as used in Table 7) (antibody, human IgG1, V domains shown)
VH: EVQLVQSGAEVKKPGESLKISCKAFGYSFTNFWIGWVRQVPGKGLEWVGIIYPGDSDTRYSPSFQGQVTISADKSIDTAYLQWGHLKASDSAMYFCARRGFWTGSQIEYWGQGTLVTVSS
VL: QSALTQPPSASGSPGHSVTISCTGTSSDVGNYSFVSWYQQYPGKAPKVIIYDVSKRSSGVPDRFFGSKSANTASLTVSGVQEEDEADYFCSSYGGSKYPWVFGGGTKLTVL
notes: Complete human IgG1 by the methods
B9: recombinant human antibody NI-105.29G10 (germlined) (antibody, human IgG1, V domains shown)
VH: EVQLVESGGDLVQPGGSLRLSCAASGFDFSGYSMAWVRQAPGKGLEWVSYISGTYVSGGTGTMYYLDSVKGRFFISRDDATSSLYLQMDSLRDEDTAVYYCARVYDYGEDWGQGTLVTVSS
VL: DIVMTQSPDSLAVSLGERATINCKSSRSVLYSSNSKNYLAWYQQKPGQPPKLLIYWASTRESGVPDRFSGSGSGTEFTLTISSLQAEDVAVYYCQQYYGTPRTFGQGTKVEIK
notes: as for B6
B10: recombinant human antibody NI-105.26B12 (germlined) (antibody, human IgG1, V domains shown)
VH: QVQLVESGGGVVQPGRSLRLSCAASGFTFTRYGMHWVRQAPGKGLEWVAVIWYDGTNKYYADSLQGRFTISRDTSTNTLYLQMNGLRVEDRAVYYCAREGFQGAIDYWGQGTLVTVSS
VL: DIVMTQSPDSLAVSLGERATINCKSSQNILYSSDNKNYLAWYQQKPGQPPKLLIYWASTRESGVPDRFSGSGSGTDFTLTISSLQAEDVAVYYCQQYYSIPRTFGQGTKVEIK
notes: as for B6
B11: recombinant human antibody NI-105.6L9 (germlined) (antibody, human IgG1, V domains shown)
VH: EVQLVESGGGLVQPGGSLRLSCAGTRFTFSTYAMGWVRQAPGRGLEWVSAIGGSGDSTSYADSVKGRFTISRDNSKNTLYLQMNSLRAEDTAVYYCAKGVYDYLWGSYRLFDYWGQGTLVTVSS
VL: SYVLTQPPSVSVAPGQTARFTCGGNNIASKSVHWYQQKPGQAPVLVVYDDSDRPSRIPERFSGSNSGNTATLTISRVEAGDEADYYCQVWDSTSDHVVFGGGTKLTVL
notes: as for B6
B12: recombinant human antibody NI-105.12E12 (germlined) (antibody, human IgG1, V domains shown)
VH: EVQLVESGGGLVQPGGSLKLSCAASGFSFSDSAFHWARQASGKGLEWVGRIRSKGNNYATAYAASVKGRFTVSRDDSKNTTYLQMNSLKTDDTAIYYCTRQGPSYGGINWGLGTLVTVSS
VL: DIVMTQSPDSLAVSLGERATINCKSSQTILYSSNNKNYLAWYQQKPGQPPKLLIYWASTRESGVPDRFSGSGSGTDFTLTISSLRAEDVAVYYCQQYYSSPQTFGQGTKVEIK
notes: as for B6
B13: recombinant human antibody NI-105.60E7 (germlined) (antibody, human IgG1, V domains shown)
VH: EVQLVESGGGFVRPGGSITLSCATSGFTFTKAWMTWVRQAPVKGLEWIGHIKTRIEGATTDYAAPVEGRFTISRDDSKNMVYLQMNSLKTEDSGIYYCSTDFDYWGQGTLVTVSS
VL: DVVMTQSPLSLPVTLGQPASISCTSSQSLLYSDGNTYLNWFQQRPGQSPRRLMYKVSKRDPGVPDRFSGSGSGTDFTLSISRVEAEDVGVYYCMQGSLWPRYTFGQGTKVEIK
notes: as for B6
B14: recombinant human antibody NI-105.14E2 (germlined) (antibody, human IgG1, V domains shown)
VH: EVQLVQSGAEVKKPGDSLRISCKASGYNFPNYWIGWVRQMPGKGLEWMGIIYPGDSDIRYSPSFQGHVTISSDKSITTAYLQWTSLKVADSAMYYCARVERPDKGGWFGPWGQGTLVTVSS
VL: DIVMTQSPDSLAVSLGERATINCKSSQTLLYTSNNQNYLAWYQHKPGQPPKVLIYWASTREYGVPDRFSGSGSGTDFTLTISSLQPEDVAVYYCQQYYNSPYTFGQGTKLEIK
notes: as for B6
B15: recombinant human antibody NI-105.39E2 (germlined) (antibody, human IgG1, V domains shown)
VH: EVQLVESGGGLVQPGGSLRLSCAASGFTFSAYGMNWVRQAPGKGLEWVAHITGSGTPIFYADSVKGRFTISRDNAKSSLYLQMNSLRNDDTALYFCVRGTVDYWGQGTLVTVSS
VL: QAGLTQPPSVSKDLRQTATLTCSGNSNNVGNQGAAWLQQFPGHPPKLLFYENINRPSGISERFSASRSGNTASLTITGLQPEDEADYYCSAWDGHLNAWVFGGGTKLTVL
notes: as for B6
B16: recombinant human antibody NI-105.19C6 (germlined) (antibody, human IgG1, V domains shown)
VH: EVQLVQSGAEVKKPGESLKISCKASGYSFISYWVGWVRQMPGKGLEWMGIIYPGDSDTRYSPSFEGQVSISADKSISTAYLQWTSLKASDTAMYYCARHWGPAAVTDSPWFGPWGQGTLVTVSS
VL: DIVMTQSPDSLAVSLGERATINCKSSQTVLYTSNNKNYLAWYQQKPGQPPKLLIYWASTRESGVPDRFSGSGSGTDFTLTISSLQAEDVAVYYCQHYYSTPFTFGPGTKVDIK
notes: as for B6
B17: recombinant human antibody NI-105.22E1 (germlined) (antibody, human IgG1, V domains shown)
VH: EVQLVQSGAEVKKPGESLKISCKGSGYRFTTYWIGWVRQMPGKGLEWMGIIYPGDSDTRYSPSYQGQVTISADKSISTAYLQWSSLKASDTGMYYCARVAGDIGYENYYYYGMDVWGQGTTVTVSS
VL: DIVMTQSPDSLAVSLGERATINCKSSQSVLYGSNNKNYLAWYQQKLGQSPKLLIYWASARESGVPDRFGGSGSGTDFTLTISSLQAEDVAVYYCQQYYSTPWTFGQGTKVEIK
notes: as for B6
B18: recombinant human antibody NI-105.9C4 (germlined) (antibody, human IgG1, V domains shown)
VH: QVQLVQSGAEVKKPGASVKVSCKASGYIFTAFFMHWVRQAPGQGLEWMGWINPDSGATKYAHNFQGRVTMTRDTSISTAFMELSGLKSDDTGVYYCATGMAVTGNFWGQGTLVTVSS
VL: SYELTQPPSVSVSPGQTARITCSGDVLAETYARWFQQKPGQAPVLVMYRDRERPAGIPERFSGSSSGNTVTLTISGAQAEDEAVYHCHSVADNNLDWVFGGGTKLTVL
notes: as for B8

What was measured:
[1] = biological target: T1, recombinant human tau, isoform Tau-F of 441 aa (hTau40) (human, UniProt P10636 1-758); assay: ELISA on recombinant Tau, absorbance at 450 nm
T1 construct: Bought from rPeptide (Bogart, GA, USA); coated on ELISA plates, blotted, or spotted as overlapping peptides; also called full-length tau; rTau

[2] = biological target: T1, recombinant human tau, isoform Tau-F of …; assay: ELISA on recombinant Tau, absorbance at 450 nm; remark: listed apart in the source
[3] = biological target: T2, normal tau in wild type mouse brain (Wt) (mouse, UniProt P10637-2 1-430, limits assumed); assay: immunohistochemistry on brain tissue sections
T2 construct: Control tissue in immunohistochemistry

[4] = biological target: T1, recombinant human tau, isoform Tau-F of …; assay: direct ELISA, hTau40 coated at 1 ug/ml
Experimental: The EC₅₀ values were estimated by a non-linear regression using GraphPad Prism software.
ELISA plates were coated with recombinant human tau (hTau40, 1 ug/ml), PHFTau (1:100) and control preparation (1:100), and incubated with varying antibody concentrations.

[5] = biological target: T1, recombinant human tau, isoform Tau-F of …; assay: direct ELISA on coated recombinant tau (rTau)
[6] = biological target: T3, PHFTau (paired helical filaments containing pathologically phosphorylated tau filaments, extracted from AD … (human, UniProt P10636-8 1-441, limits assumed, pathologically phosphorylated (sites of the preparation not listed), aggregated filaments)); assay: direct ELISA on coated PHFTau
T3 construct: Brain extract, not a single defined isoform; also called human PHF tau; pathologically modified PHFTau
T3 sequence (P10636 other isoform, or with tags, fused parts or gaps limits assumed): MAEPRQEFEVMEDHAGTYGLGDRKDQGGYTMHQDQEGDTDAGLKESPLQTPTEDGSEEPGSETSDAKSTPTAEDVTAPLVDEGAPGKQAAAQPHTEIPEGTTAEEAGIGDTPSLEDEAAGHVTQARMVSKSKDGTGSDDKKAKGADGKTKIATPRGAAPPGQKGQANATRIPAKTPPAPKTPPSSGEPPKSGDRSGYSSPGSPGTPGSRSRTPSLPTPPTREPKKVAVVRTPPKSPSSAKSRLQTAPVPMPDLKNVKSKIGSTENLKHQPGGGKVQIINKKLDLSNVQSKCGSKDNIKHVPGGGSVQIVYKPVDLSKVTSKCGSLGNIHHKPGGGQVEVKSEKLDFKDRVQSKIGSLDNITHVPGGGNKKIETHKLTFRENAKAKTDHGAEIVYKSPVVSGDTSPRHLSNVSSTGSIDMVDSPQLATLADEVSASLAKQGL

T1 sequence (P10636 other isoform, or with tags, fused parts or gaps limits assumed): as above
T2 sequence (P10637 other isoform, or with tags, fused parts or gaps limits assumed): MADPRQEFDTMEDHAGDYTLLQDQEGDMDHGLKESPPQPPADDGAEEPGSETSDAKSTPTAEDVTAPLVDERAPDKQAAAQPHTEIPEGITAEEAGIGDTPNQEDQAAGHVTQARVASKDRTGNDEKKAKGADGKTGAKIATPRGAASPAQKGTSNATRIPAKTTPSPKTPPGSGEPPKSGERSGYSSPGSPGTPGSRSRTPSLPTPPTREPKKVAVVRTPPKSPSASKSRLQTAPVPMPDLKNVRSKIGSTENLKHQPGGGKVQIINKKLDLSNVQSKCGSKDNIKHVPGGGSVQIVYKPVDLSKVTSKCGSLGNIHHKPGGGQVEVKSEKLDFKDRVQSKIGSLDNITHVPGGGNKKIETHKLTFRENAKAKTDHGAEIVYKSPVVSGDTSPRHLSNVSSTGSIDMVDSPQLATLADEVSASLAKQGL

| Binder | EC50 [5] | also measured |
| --- | --- | --- |
| B1 | – | EC50 (read off the curve) [1]: ~0.8 µg/mL; EC50 (read off the curve) [2]: ~0.3 µg/mL |
| B2 | – | EC50 (read off the curve) [2]: ~0.3 µg/mL |
| B3 | – | EC50 (read off the curve) [1]: ~0.8 µg/mL |
| B4 | – | EC50 (read off the curve) [1]: ~0.9 µg/mL |
| B5 | – | binding result [3]: no binding |
| B6 | – | binding result [3]: no binding |
| B7 | – | EC50 [4]: 2.4 nM |
| B8 | 3.3 nM | EC50 [6]: 4.7 nM |
| B9 | 3.8 nM | EC50 [6]: 5.3 nM |
| B10 | 2.9 nM | – |
| B11 | 2.5 nM | – |
| B12 | 28.6 nM | – |
| B13 | 0.18 nM | – |
| B14 | 0.65 nM | – |
| B15 | 0.7 nM | – |
| B16 | 4 nM | – |
| B17 | 1.1 nM | – |
| B18 | 5.2 nM | – |
